# According to publication PMC3756924 (Molecular Biology of the Cell, 2013):
# T1: GST-Sec24p (S. cerevisiae, UniProt P40482 1-926)
# T1 sequence (looked up): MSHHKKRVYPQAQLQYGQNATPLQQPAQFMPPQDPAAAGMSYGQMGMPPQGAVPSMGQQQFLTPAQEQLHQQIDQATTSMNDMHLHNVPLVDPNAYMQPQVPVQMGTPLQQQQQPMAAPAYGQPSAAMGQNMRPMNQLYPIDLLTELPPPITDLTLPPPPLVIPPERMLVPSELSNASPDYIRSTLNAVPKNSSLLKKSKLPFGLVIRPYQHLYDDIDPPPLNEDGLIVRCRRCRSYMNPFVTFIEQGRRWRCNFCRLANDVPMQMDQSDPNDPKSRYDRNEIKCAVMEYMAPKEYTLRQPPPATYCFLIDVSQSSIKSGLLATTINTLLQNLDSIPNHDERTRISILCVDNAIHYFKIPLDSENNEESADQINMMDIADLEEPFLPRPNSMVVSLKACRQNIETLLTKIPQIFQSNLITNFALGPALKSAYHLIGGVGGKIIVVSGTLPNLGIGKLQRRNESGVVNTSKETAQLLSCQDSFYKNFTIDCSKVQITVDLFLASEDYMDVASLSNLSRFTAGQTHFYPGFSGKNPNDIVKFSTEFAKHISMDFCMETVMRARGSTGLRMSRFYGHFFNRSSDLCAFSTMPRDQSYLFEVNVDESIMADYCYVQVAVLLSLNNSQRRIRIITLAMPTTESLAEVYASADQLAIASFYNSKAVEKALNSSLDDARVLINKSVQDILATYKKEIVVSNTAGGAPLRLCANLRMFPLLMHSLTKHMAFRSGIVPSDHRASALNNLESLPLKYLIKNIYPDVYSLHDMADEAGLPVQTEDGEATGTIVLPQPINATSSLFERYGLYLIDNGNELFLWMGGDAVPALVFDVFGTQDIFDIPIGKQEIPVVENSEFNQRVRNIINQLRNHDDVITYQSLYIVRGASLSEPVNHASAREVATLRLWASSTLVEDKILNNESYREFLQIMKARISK
# T2: GST-Lst1p (S. cerevisiae, UniProt P38810 1-929)
# T2 sequence (looked up): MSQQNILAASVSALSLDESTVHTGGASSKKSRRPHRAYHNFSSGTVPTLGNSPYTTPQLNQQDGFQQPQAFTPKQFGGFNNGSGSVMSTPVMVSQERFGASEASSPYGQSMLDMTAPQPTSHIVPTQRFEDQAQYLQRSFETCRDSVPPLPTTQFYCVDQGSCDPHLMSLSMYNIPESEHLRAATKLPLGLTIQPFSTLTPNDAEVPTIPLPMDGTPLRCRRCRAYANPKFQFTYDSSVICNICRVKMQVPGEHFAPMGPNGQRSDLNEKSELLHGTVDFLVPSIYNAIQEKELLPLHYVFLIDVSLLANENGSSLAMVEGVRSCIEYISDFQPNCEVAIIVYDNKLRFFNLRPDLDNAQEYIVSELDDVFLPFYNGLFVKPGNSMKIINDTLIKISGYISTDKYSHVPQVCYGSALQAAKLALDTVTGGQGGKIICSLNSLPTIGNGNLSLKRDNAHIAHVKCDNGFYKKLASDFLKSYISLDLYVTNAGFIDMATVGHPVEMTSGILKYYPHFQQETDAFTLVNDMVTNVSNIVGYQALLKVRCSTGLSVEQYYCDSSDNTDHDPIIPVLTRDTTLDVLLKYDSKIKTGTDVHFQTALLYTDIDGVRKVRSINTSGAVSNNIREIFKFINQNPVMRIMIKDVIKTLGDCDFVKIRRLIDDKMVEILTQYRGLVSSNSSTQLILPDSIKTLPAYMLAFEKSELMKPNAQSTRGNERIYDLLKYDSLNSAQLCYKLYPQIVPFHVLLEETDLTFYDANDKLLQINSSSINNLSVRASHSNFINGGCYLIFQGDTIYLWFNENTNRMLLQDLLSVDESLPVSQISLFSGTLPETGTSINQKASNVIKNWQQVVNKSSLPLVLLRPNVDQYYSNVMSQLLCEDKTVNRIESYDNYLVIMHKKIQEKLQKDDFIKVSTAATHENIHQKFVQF
# T3: GST-Sec31p (aa 1–500) (S. cerevisiae, UniProt P38968 1-500)
# T3 sequence (looked up): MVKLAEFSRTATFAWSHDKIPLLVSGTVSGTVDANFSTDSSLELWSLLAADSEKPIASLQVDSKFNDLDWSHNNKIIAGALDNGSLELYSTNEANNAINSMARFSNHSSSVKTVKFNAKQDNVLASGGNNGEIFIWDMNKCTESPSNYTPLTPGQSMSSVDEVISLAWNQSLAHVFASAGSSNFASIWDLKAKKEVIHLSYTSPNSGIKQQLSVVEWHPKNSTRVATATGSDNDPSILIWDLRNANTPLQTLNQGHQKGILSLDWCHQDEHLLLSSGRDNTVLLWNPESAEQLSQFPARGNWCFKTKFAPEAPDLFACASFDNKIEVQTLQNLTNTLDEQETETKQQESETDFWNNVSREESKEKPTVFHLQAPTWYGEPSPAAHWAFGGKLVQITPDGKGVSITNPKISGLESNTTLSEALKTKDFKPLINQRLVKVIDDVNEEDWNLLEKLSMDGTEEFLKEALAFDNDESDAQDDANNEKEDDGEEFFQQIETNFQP
# T4: GST-Sec23p (S. cerevisiae, UniProt P15303 1-768)
# T4 sequence (looked up): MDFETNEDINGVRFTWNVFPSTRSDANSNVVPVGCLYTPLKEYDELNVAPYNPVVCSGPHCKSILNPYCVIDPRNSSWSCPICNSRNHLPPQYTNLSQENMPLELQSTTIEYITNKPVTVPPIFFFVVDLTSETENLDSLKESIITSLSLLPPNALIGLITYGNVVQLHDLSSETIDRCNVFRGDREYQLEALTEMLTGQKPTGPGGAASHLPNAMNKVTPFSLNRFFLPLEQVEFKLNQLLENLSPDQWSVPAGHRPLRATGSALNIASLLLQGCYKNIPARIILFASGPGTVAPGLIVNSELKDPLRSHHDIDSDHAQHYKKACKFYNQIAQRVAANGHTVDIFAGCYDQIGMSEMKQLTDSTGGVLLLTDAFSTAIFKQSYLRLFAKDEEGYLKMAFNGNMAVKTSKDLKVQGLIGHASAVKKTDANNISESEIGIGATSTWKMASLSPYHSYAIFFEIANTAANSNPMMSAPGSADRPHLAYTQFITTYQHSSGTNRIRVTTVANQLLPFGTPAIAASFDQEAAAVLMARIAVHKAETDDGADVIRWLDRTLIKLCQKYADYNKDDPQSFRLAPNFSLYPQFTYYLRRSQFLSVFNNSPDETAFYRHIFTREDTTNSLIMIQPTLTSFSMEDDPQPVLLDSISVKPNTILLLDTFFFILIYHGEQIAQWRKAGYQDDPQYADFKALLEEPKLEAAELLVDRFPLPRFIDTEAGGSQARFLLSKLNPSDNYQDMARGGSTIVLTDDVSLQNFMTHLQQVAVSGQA
# B1: hexahistidine (His6)-Sit4p (enzyme, S. cerevisiae, UniProt P20604 1-311, looked up)
# chain: MVSRGPDEWLETIKKCQALTENEMKQLCEMVKELLMEESNIQPVQTPVTVCGDIHGQFHDLLELFRTAGGFPDDINYIFLGDYVDRGYYSLETFTLLMCLKVKYPAKITLVRGNHESRQITQVYGFYEECLNKYGSTTVWKYCCQVFDFLTLAAIIDGKILCVHGGLSPEIRMLDQIRVLSRAQEVPHEGGFSDLLWSDPDNVEAWQVSPRGAGWLFGSKVAREFNHVNGLNLIARAHQLVMEGFKYHFPEKDVVTVWSAPNYCYRCGNVASVMKVDEDLEPTFKIFSAVPDDYIRESTANHNNQRAGYFL
# Key:
# Assay in all cases: pull-down
# GST-Sec24p = molecular target: T1, GST-Sec24p
# GST-Lst1p = molecular target: T2, GST-Lst1p
# GST-Sec31p (aa 1–500) = molecular target: T3, GST-Sec31p (aa 1–500)
# GST-Sec23p = molecular target: T4, GST-Sec23p
# [1] = molecular target: B1
binding result (GST-Sec24p),binding result (GST-Lst1p),binding result (GST-Sec31p (aa 1–500)),binding result (GST-Sec23p),binding result [1],Binder
binds,binds,binds,binds,–,B1
–,–,–,–,binds,"GST-Sec31p (aa 1115–1273) (domain or fragment, S. cerevisiae, UniProt P38968 1115-1273, looked up) RSNKLASIEQNPSQGATYPPTLSSSASPLQPSQPPTLASQVNTSAENVSHEIPADQQPIVDFLKEELARVTPLTPKEYSKQLKDCDKRLKILFYHLEKQDLLTQPTIDCLHDLVALMKEKKYKEAMVIHANIATNHAQEGGNWLTGVKRLIGIAEATLN"
